# Substitutions are numbered along the chain they refer to.
# B1: FL-60 scFv (scFv)
# scFv: QVTLKESGPALVKPTQTLTLTCTFSGFSLSNARMGVSWIRQPPGKALEWLAHIFSNDEKSYSTSLKSRLTISKDTSKRQVVLTMTNMDPVDTATYYCARMVGYGSGWYAYFDYWGQGTLVTVSSGGGGSGGGGSGGGGSDIVMTQTPLSLSVTPGQPASISCRSSQSLLHSNGYNYLYWYLQKPGQPPQLLIYEVSNRFSGVPDRFSGSGSGTDFTLKISRVEAEDVGVYYCMQALQTPLTFGGGTKVEIK
# notes: periplasmic prep
# B2: FL-46 scFv (scFv)
# scFv: QVTLKESGPVLVKPTQTLTLTCTFSGFSLSNARMGVSWIRQPPGKCLEWLALIYWNDDKRYSPSLKSRLTITKDTSKNQVVLTMTNMDPVDTATYYCARMVGYGSGWYAYFDYWGQGTLVTVSSGGGGSGGGGSGGGGSDIQMTQSPSSLSASVGDRVTITCRASQGIRNDLGWYQQKPGKAPKRLIYAASSLQSGVPSRFSGSGSGTEFTLTISSLQPEDFATYYCLQHNSYPLTFGCGTKVEIK
# notes: periplasmic prep
# B3: FL-57 scFv (scFv)
# scFv: QVTLKESGPTLVKPTETLTLTCTFSGFSLRYARMGVSWIRQPPGKALEWLAHISSNDEKSFSTALESRLTISTDTSKSQMVLTMTNVDPVDTATYYCARMPGDSNTWRGFFDYWGQGTLVTVSSGGGGSGGGGSGGGGSEIVMTQSPGTLSLSPGERATLSCRTSQTVTNSYIAWYQQRPGQAPRLLIYGTSTRATGIPDRFSGSGSGTDFTLTISRLEPEDFAVYYCQKYGSSPLTFGGGTKLEIK
# notes: periplasmic prep
# B4: FL-63 scFv (scFv)
# scFv: QVQLVESGGGVVQPGRSLRLSCAASGFTFSSYGMHWVRQAPGKGLEWVAVISYDGSNEFYADSVKGRFTISRDNSKNTLYLQMNSLRAEDTAVYYCARGGEITMVRGVIGYYYYGMDVWGQGTTVTVSSGGGGSGGGGSGGGGSDIQMTQSPSSLSASVGDRVTITCRTSQSISSYLNWYQQKPGKAPKLLIYAASSLQSGVPSRFSGSGSGTEFTLTISSLQPEDFATYYCLQHNSYPLTFGGGTKVDIK
# notes: periplasmic prep
# B5: FL-61 scFv (scFv)
# scFv: B4 scFv with T169A, D249E
# notes: periplasmic prep
# B6: FL-64 scFv (scFv)
# scFv: B4 scFv with D161N, T169A
# notes: periplasmic prep
# B7: FL-53 scFv (scFv)
# scFv: B4 scFv with G44C, G244C
# notes: periplasmic prep
# B8: FL-54 scFv (scFv)
# scFv: QVQLVESGGGVVQPGRSLRLSCAASGFTFSSYGMHWVRQAPGKCLEWVAVISYDGSNEFYADSVKGRFTISRDNSKNTLYLQMNSLRAEDTAVYYCARGGEITMVRGVIGYYYYGMDVWGQGTTVTVSSGGGGSGGGGSGGGGSEIVMTQSPATLSVSPGERATLSCRASQGVRNNLVWYQQKPGQAPRLLIYGASTRATGIPARFSGSGSGTEFTLTISSLQSEDFATYYCLQHNSYPLTFGCGTKVEIK
# notes: periplasmic prep
# B9: FL-62 scFv (scFv)
# scFv: B8 scFv with C44G, C244G
# notes: periplasmic prep; also called F-62
# B10: FL-47 scFv (scFv)
# scFv: QVTLKESGPALVKPTQTLTLTCTFSGFSLSNARMGVSWIRQPPGKCLEWLAHIFSNDEKSYSTSLKSRLTISKDTSKSQVVLTMTDMDPEDTATYYCARIVGYGTGWYGFFDYWGQGILVTVSSGGGGSGGGGSGGGGSDIQMTQSPSSLSASVGDRVTITCRTSQGIRNDLGWYQQKPGKAPKRLIYAASSLQSGVPSRFSGSGSGTEFTLTISSLQPEDFATYYCLQHNSYPLTFGCGTKVEIK
# notes: periplasmic prep
# B11: FL-5 scFv (scFv)
# scFv: QVTLKESGPMLVKPTETLTLTCTFSGFSLRNARMGVSWIRQPPGKALEWLAHIFWNDEKSYSTSLKSRLTISKDTSKSQVVLTMTNMDPVDTATYYCARIPYYGSGSYNYGMDVWGQGTTVTVSSGGGGSGGGGSGGGGSDIQMTQSPSSLSASVGDRVTITCRASQGIRNDLGWYQQKPGKAPKRLIYAASSLQSGVPSRFSGSGSGTEFTLTISSLQPEDFATYYCLQHNTYPLTFGGGTKVDIK
# notes: periplasmic prep
# B12: FL-34 scFv (scFv)
# scFv: B11 scFv with M10A, T233S, V244L, D245E
# notes: periplasmic prep
# B13: FL-48 scFv (scFv)
# scFv: B11 scFv with A46C, G240C
# notes: periplasmic prep
# B14: FL-39 scFv (scFv)
# scFv: QVTLKESGPTLVKPTETLTLTCTLSGFSLNNARMGVSWIRQPPGKCLEWLAHIFSNDEKSYSTSLKNRLTISKDSSKTQVVLTMTNVDPVDTATYYCARIVGYGSGWYGFFDYWGQGTLVTVSSGGGGSGGGGSGGGGSDIQMTQSPSSLSASVGDRVTITCRASQGIRNDLGWYQQKPGKAPKRLIYAASTLQSGVPSRFSGSGSGTEFTLTISSLQPEDFATYYCLQHNSYPLTFGCGTKVEIK
# notes: periplasmic prep
# B15: FL-45 scFv (scFv)
# scFv: B10 scFv with S62R, D86N, E90V, T105S, G109A, F110Y, I118T, T164A
# notes: periplasmic prep
# B16: FL-42 scFv (scFv)
# scFv: B10 scFv with Q16E, F24L, S30N, G35A, D86N, T164A, G173A
# notes: periplasmic prep
# B17: FL-55 scFv (scFv)
# scFv: QVQLVESGGGVVQPGRSLRLSCAASGFTFSSYGMHWVRQAPGKCLEWVAVISYDGSNKYYADSVKGRFTISRDNSKNTLYLQMNSLRAEDTAVYYCARSYGMDVWGQGTTVTVSSGGGGSGGGGSGGGGSDIQMTQSPSSVSASVGDRVTITCRASQGISSWLAWYQQKPGKAPKLLIYAASSLQSGVPSRFSGSGSGTDFTLTISSLQPEDFATYYCQQANSFPWTFGCGTKLEIK
# notes: periplasmic prep
# B18: FL-65 scFv (scFv)
# scFv: B17 scFv with C44G, C230Q
# notes: periplasmic prep
# B19: FL-56 scFv (scFv)
# scFv: QVTLKESGPVLVKPTETLTLTCTVSGFSLRNVRMGVSWIRQPPGKALEWLAHIFSNDEKLYTTSLKSRLTISKDTSKSQVVLTMTNMDPEDTATYYCARIVGYGTGWYGYFDYWGQGTQVTVSSGGGGSGGGGSGGGGSDIQMTQSPSSLSASIGDRVTITCRASQDIRDDLGWYQREPGKAPKRLIYATSIRQSGVPSRFSGSGSGTEFTLTISGLQPEDFATYFCLQHHSFPLTFGGGTKVDIK
# notes: periplasmic prep
# B20: FL-9 scFv (scFv)
# scFv: QVTLKESGPTLVKPTETLTLTCTVSGFSLSNARMGVSWIRQPPGKALEWLAHIFSNDEKSYSTSLKSRLTISKDTSKSQVVLTMTNMDPVDTATYYCARIPGYGGNFYYHYYGMDVWGQGTTVTVSSGGGGSGGGGSGGGGSDIQMTQSPSSLSASVGDRVTITCRASQGIRNDLAWYQQKPGKAPKRLIYAASTVQSGVPSRFSGSGSGTEFALTISSLQPEDFATYYCLQHNSFPWTFGQGTKVDIK
# notes: periplasmic prep
# B21: FL-21 scFv (scFv)
# scFv: QVTLKESGPALVKPTETLTLTCTFSGFSLSNARMGVSWIRQPPGKALEWLAHIFSNDEKSYSTSLKSRLTISKDTSKSQVVLTMTNMDPVDTATYYCARIPGYGGNFYYHYYGMDVWGQGTTVTVSSGGGGSGGGGSGGGGSDIQMTQSPSSLSASVGDRVTITCRTSRGIRNDLGWYQQIPGRAPKRLIYAASTLQSGVPSRFSGSGSGTEFTLTISSLQPEDFATYYCLQHNNFPWTFGQGTKVEIK
# notes: periplasmic prep
# B22: FL-50 scFv (scFv)
# scFv: B20 scFv with A46C, Q242C
# notes: periplasmic prep
# B23: FL-51 scFv (scFv)
# scFv: QVTLKESGPTLVKPTETLTLTCTVSGFSLRNVRMGVSWIRQPPGKCLEWLAHISSNDEKSYSTSLRSRLTISTDTSKSQVVLTMTNMDPVDTATYYCARMPGDSNTWRGFFDYWGQGTLVTVSSGGGGSGGGGSGGGGSEIVMTQSPATLSVSPGERATLSCRTSQSVNNNLAWYQQKPGQAPRLLIYGASTRATGIPARFSGSGSGTEFTLTISSLQPEDFATYYCLQHNSYPLTFGCGTKVEIK
# notes: periplasmic prep
# B24: FL-58 scFv (scFv)
# scFv: B23 scFv with C46A, C239G
# notes: periplasmic prep
# B25: FL-49 scFv (scFv)
# scFv: QVTLKESGPTLVKPTETLTLTCTVSGFSLNNARMGVSWIRQPPGKCLEWLAHIFSNDEKSYSTSLKNRLTISKDSSKTQVVLTMTNVDPVDTATYYCARIVGYGTGWFGYFDYWGQGTQVTVSSGGGGSGGGGSGGGGSDIQMTQSPSSLSASVGDRVTITCRASQDIRTDLAWYQQKPGKAPKRLIYAASSLQSGVPSRFSGSGSGTEFTLTISSLQPEDFATYYCLQHNRYPLTFGCGTKVDIK
# notes: periplasmic prep
# Target: T1, human FLT3 (human, UniProt P36888 27-993)
# T1 construct: On transfected CHO cells, or on the FLT3 positive human AML cell lines EOL-1 / MV4-11 where the row says so; also called hu FLT3; full length human FLT3
# Assay: FACS, scFv on CHO-human FLT3 pre-incubated with FLT3 ligand (competitor)
# Method: The detection was performed using mouse anti-FLAG+PE-conjugated goat anti-mouse and the Fluorescence median detected by FACS (median (+ligand)/median (w/o ligand)*100%)
# Afterwards cells were not washed but directly stained with FLT3 binder (scFv's). […] As negative control, cells were incubated with an unspecific scFv instead of FLT3 scFv.
# For the evaluation of the data, the fluorescence median was detected by FACS.
row,median [+ligand]/median [w/o ligand]*100,Binder
1,≥ 75%,B1
2,≥ 75%,B2
3,≥ 75%,B3
4,≥ 75%,B4
5,≥ 75%,B5
6,≥ 75%,B6
7,≥ 75%,B7
8,≥ 75%,B8
9,≥ 75%,B9
10,≥ 75%,B10
11,≥ 75%,B11
12,≥ 75%,B12
13,≥ 75%,B13
14,≥ 75%,B14
15,≥ 75%,B15
16,≥ 75%,B16
17,≥ 75%,B17
18,≥ 75%,B18
19,≥ 75%,B19
20,≥ 75%,B20
21,≥ 75%,B21
22,≥ 75%,B22
23,≥ 75%,B23
24,≥ 75%,B24
25,≥ 75%,B25

# From US20170037149A1 (Amgen, published 2017)
